From the nanobody polyreactivity screen of Harvey et al. (2022)

assay: yeast display, Sf9 membrane polyspecificity reagent, FACS + sequencing; frameworks hold sequencing errors
In short: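 Galactose induction of a Saccharomyces cerevisiae BJ5465 synthetic nanobody display library ran 36–48 hours. The cells were then stained for 1 hour at 4 °C with 10% biotinylated, detergent-solubilized Sf9 membrane reagent, pulled down on streptavidin microbeads and FACS-sorted into low and high (top ~1%) gates on expression and reagent-binding fluorescence. Labels for polyreactivity follow the gate of origin.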

Sequence | polyreactivity (PSR sort gate)
QVQLVESGGGLVQAGGSLRLSCAASGITFSRNAMGWYRQAPGKERELVATITSGGSTNYADSVKGRFTISRDNAKNTVYLQMNSLKPEDTAVYYCAVDYDSYWYGTYVNEYDYWGQGTQVTVSS | low polyreactivity
QVQLVESGGGLVQAGGSLRLSCAASGITFSRNGMGWYRQAPGKERELVAAISTSGDSTDYADSVKGRFTISRDNAKNTVYLQMNSLKPEDTAVYYCATEWSYYNYGYDYWGQGTQVTVSS | low polyreactivity
QVQLVESGGGLVQAGGSLRLSCAASGITFSRYTMGWYRQAPGKERELVAGISSRGGSTYYADSVKGRFTISRDNAKNTVYLQMNSLKPEDTAVYYCAADGEHYPWYYYWGQGTQVTVSS | high polyreactivity
QVQLVESGGGLVQAGGSLRLSCAASGITFSSYVMGWYRQAPGKERELVAAISRSGGITYYADSVKGRFTISRDNAKNTVYIQMNSLKPEDTAVYYCAATFPAGWSYANYYYWGQGTQVTVSS | high polyreactivity
QVQLVESGGGLVQAGGSLRLSCAASGITFSTYAMGWYRQAPGKERELVAAINWSGGSTRYADSVKGRFTISRDNAKNTVYLQMNSLKPADTAVYYCAAEVQGQVGEFDYWGQGTQVTVSS | low polyreactivity
QVQLVESGGGLVQAGGSLRLSCAASGITFSVNAMGWYRQAPGKEREFVAAISSSGGSTYYADSLKGRFTISRDNAKNTVYLQMNSLKPEDTAVYYCAASGRVQRQHYRPYPYGYWGQGTQVTVSS | high polyreactivity
QVQLVESGGGLVQAGGSLRLSCAASGITFSVYAMGWYRQAPGKERELVASISSGGTSTYYADSVKGRFTISRDNAKNNVYLQMNSLKTEDSAVYYCAAYSYYTGDQYSYDYWGQGTQVTVSS | low polyreactivity
QVQLVESGGGLVQAGGSLRLSCAASGITFSWNAMGRYRQAPGKERELVASITENTGCTYYADSVKGRFTISRDNAKNTVYLQMNSLKPEDTAVDYCWYTQNTLGNYWGQGTQVTVSS | low polyreactivity
QVQLVESGGGLVQAGGSLRLSCAASGITFSYNAMGWYRQAPGKERELVAAITWSGDSTYYADSVKGRFTISRDNAKNTVYLQMNSLKPEDTAVYYCNARYLRLRYPYTDEYNYWGQGTQVTVSS | low polyreactivity
QVQLVESGGGLVQAGGSLRLSCAASGITFSYNVMGWYRQAPGKEREFVAAISDGGSTYYADSVKGRFTISRDNAKNTVYLQMNSLKPEDTAVYFCAKGYRYTYSQQVIYDYYYWGQGTQVTVSS | low polyreactivity
QVQLVESGGGLVQAGGSLRLSCAASGITFSYYAMGWYRQAPGKEMELVAAISGRDTRTYYADSVKGRFTISRDNAKNTVYLQMNSLKPEDTAVYYCNAVRKHLLKYDYWGQGTQVTVSS | high polyreactivity
QVQLVESGGGLVQAGGSLRLSCAASGITFSYYAMGWYRQAPGKERELVAAITGGSTYYADSVKGRFTISRDNAKNTVYLQMNSLKPEDTAVYYCNADSLFEYLDYDYWGQGTQVTVSS | low polyreactivity
QVQLVESGGGLVQAGGSLRLSCAASGITFTDNTMGWYRQAPGKERELVAAISRSGTSTYYADSVKGRFTISRDNAKNTVYLQMNSLKPEDTAVYYCAALSYVPSPYYYWGQGTQVTVSS | high polyreactivity
QVQLVESGGGLVQAGGSLRLSCAASGITFTEYAMGWYRQAPGKERELVAAITGSGTSTYYADSVKGRFTISRDNAKNTVYLQMNSLKPEDTAVYYCAAERKNKYDYWGQGTQVTVSS | high polyreactivity
QVQLVESGGGLVQAGGSLRLSCAASGITFTFNAMGWYRQAPGKERELVAAISSTTSTKYADSVKGRFTISRDNAKNTVYLQMNSLKPEDTAVYYCALTYLLRYYGYRDDEYDYWGQGTQVTVSS | low polyreactivity
QVQLVESGGGLVQAGGSLRLSCAASGITFTPNAMGWYRQAPGKEREFVAAITYSGGSTYYADSVKGRFTISRDNAKNTVYLQMNSLKPEDTAVYYCAADSFAWWGSRYDYWGQGTQVTVSS | low polyreactivity
QVQLVESGGGLVQAGGSLRLSCAASGITFTQYAMGWYRQAPGKELELVAAITSSGGSTYYADSVKERFTISRDNAKNTVYLQMNSLKPEDTAVYYFIAVRRRQSDYWGQGTQVTVSS | high polyreactivity
QVQLVESGGGLVQAGGSLRLSCAASGITFTQYAMGWYRQAPGKERELVASITSSGDNTYYADSVKGRFTISRDNAKNTVYLQMNSLKPEDTAVYYCNARYKWSRRKPWGYWGQGTQVTVSS | high polyreactivity
QVQLVESGGGLVQAGGSLRLSCAASGITFTRYGMGWYRQAPGKERELVAVISSSGGRTYYADSVKGRFTISRDNAKNTVYLQMNSLKPEDTAVYYCATVRVLAKYRPKMDYWGQGTQVTVSS | high polyreactivity
QVQLVESGGGLVQAGGSLRLSCAASGITFTSYAMGWYRQAPGKERELVAAISSSGVRTYYADSVKGRFTISRDYAKNTVYLQMKSLKPEDTAVYYCATRRRVLYGYDYWGQGTQVTVSS | high polyreactivity
QVQLVESGGGLVQAGGSLRLSCAASGITFTSYVMGWYRQAPGKERELVAAIRWSGGRTYYADSVKGRFTISRDNAKNTVYLQINSLKPEDTAVYYCAAYPSYYGDSGLRYDYWGQGTQVTVSS | high polyreactivity

Sequence | polyreactivity (PSR sort gate)
QVQLVESGGGLVQAGGSLRLSCAASGITFTSYVMGWYRQAPGKERELVAAIRWSGGRTYYADSVKGRFTITRDNAKNTVYLQMNSLKPEDTAGYYCAAKRKPRPSYRYGYWGQGTQVTVSS | high polyreactivity
QVQLVESGGGLVQAGGSLRLSCAASGITFTYYAMGWYRQAPGKERELVAAISYSGGSTYYADSVKGRFTISRDNAKITGYLQMNSLKREDTAVYYCATDARDGHDYWGQGTQVTVSS | high polyreactivity
QVQLVESGGGLVQAGGSLRLSCAASGITFVFYAMGWYRQAPGKEREFVAGITWRGGRTYYADSVKGRFTISRDNAKNTVYLQMNSLKPEDTAVYYCNARSVVLTGGDYWGQGTQVTVSS | high polyreactivity
QVQLVESGGGLVQAGGSLRLSCAASGITFVFYAMGWYRQAPGKERELVAAISWSGGITYYADSVKGRFTISRDNAKNTVYLQMNSLKPEDTAFYYCAATKRQTKYYGGTTDSIMYYWGQGTQVTVSS | low polyreactivity
QVQLVESGGGLVQAGGSLRLSCAASGITFVGNAMGGYRQATGKERELVAVIRGNGGSTYYADSVKGRFTISRDNAKNTVYLQMNSLKPEDTAVYYCAAAAYYADFDYLGQGTQVTVSS | low polyreactivity
QVQLVESGGGLVQAGGSLRLSCAASGITFVINGMGWYRQAPGKESELLAAISKSGRTYYADSVKGRFTISRDNAKNTVFIQMNSLTPEDSAVYYCNNVPYPSNDYWGQGTQVTVSS | high polyreactivity
QVQLVESGGGLVQAGGSLRLSCAASGITFVIYAMGWYRQAPGKEREFVAGINWSTGSTYYADTVKGRFTISRDYAKNTVYLQMNSLKPEDTAVYYFNVDAIINAIGAYWYDFDYWGQGTQVTVSS | low polyreactivity
QVQLVESGGGLVQAGGSLRLSCAASGITFVKNAMGWYRQAPGKERELVARIRIGGSTSYADSVKGRFTFSRDNAKNTVYLQMNSLKPEDTAVYYCARYAGRLSYRYEYWGQGTQVTVSS | high polyreactivity
QVQLVESGGGLVQAGGSLRLSCAASGITFVKNAMGWYRQAPGKERELVARIRIGGSTSYADSVKGRFTISRDNAKNTVYLQRNSLKPEDNAVYYCARYAGRLSYRYEYWGQGTQVTVSS | high polyreactivity
QVQLVESGGGLVQAGGSLRLSCAASGITFVKYAMGWYRQAPGKERELVAAISGSGGSTSYADSVKGRFTISRDNAKNTVYLQMNSLKPEDTAVYYCNKAIVRYPKTRDYWGQGTQVTVSS | low polyreactivity
QVQLVESGGGLVQAGGSLRLSCAASGITFVPNAMGWYRQAPGKERELVARIDNGVSTNYADSVKGRFTISRDNAKNTVYLQMNSLKPEDTAVYYCAKDGYWGDWDLYYWGQGTQVTVSS | low polyreactivity
QVQLVESGGGLVQAGGSLRLSCAASGITFVPYAMGWSRQAPGKERELVAAITWRGGSTYYADSVKGRFTISRDNAKNTVYLQMNSLKPEDTAVYYCAVKFRSSQYQLQYGSLGQGTQVTVSS | high polyreactivity
QVQLVESGGGLVQAGGSLRLSCAASGITFVPYAMGWYRQAPGKEREFVARITWSGGGTYYADSVKGRFTISRDNAKNTVYLQMNSLKPEDTAVYYSNKASLPTYYYVDGSDSWGQGTQVTVSS | low polyreactivity
QVQLVESGGGLVQAGGSLRLSCAASGITFVRYAMGGYRQAPGKESELVAGISRGGSTNYADSVKGRFTISRDNAKNTVYLQMNSLKPEDSAVYYCNALYARRVYVGYDYWGQGTQVTVSS | high polyreactivity
QVQLVESGGGLVQAGGSLRLSCAASGITFVRYAMGWYRQAPGKERELVAAISSGGSTHYADSVKGRFTISRDNAKNTVYLQMYSLKPEDTAVYYCAAQWTESSLYRFGYLGQGTQVTVSS | high polyreactivity
QVQLVESGGGLVQAGGSLRLSCAASGITFVRYAMGWYRQAPGKERELVATINWSGGSTYYADSVKGRFTISRDNAKNTVYLQMNSLKPEDTAVYYCAAYYVHPVYDVGHYDYWGQGTQVTVSS | low polyreactivity
QVQLVESGGGLVQAGGSLRLSCAASGITFVRYAMGWYRQATGKERELVAGISRGGSTNYADSVKGRFTISRDNAKNTVYLQMNSLKPEDTAVYYCNRVFTWRYGYRYEYWGQGTQVTVSS | high polyreactivity
QVQLVESGGGLVQAGGSLRLSCAASGITFVWNAMGWYIKEPGKERELVATISRGGVRTYYADSVKGRFTISRDNAKNTVYLQMNSLKPEDTAVYYCNAYFEYYDYWGQGTQVSVSS | low polyreactivity
QVQLVESGGGLVQAGGSLRLSCAASGITFVYNDMGSYRQAPGKESELVAAISWRGGSTYYADSVKGRFTISRDNAKNTVYLQMNSLKPEDTAVYYCNKLPTYPEYGYDSWGQGTQVTVSS | high polyreactivity
QVQLVESGGGLVQAGGSLRLSCAASGITFVYYDMGWYRQAPGKERELLAAISSGGSTYYADSVKGRFTISRDNAKNTVYLQMNSLKPEDTAVYYCAAKISSNYHIGGDDYWGQGTQVSVSS | high polyreactivity
